The target of one assay is T1, human calcium receptor (Homo sapiens, UniProt P41180).
T1 construct: expressed in transfected cells; host or cells: Xenopus laevis oocytes microinjected with cRNA; gene amplified by PCR from human kidney cDNA (Clontech) and cloned in pBR322
T1 sequence (P41180 20-1078): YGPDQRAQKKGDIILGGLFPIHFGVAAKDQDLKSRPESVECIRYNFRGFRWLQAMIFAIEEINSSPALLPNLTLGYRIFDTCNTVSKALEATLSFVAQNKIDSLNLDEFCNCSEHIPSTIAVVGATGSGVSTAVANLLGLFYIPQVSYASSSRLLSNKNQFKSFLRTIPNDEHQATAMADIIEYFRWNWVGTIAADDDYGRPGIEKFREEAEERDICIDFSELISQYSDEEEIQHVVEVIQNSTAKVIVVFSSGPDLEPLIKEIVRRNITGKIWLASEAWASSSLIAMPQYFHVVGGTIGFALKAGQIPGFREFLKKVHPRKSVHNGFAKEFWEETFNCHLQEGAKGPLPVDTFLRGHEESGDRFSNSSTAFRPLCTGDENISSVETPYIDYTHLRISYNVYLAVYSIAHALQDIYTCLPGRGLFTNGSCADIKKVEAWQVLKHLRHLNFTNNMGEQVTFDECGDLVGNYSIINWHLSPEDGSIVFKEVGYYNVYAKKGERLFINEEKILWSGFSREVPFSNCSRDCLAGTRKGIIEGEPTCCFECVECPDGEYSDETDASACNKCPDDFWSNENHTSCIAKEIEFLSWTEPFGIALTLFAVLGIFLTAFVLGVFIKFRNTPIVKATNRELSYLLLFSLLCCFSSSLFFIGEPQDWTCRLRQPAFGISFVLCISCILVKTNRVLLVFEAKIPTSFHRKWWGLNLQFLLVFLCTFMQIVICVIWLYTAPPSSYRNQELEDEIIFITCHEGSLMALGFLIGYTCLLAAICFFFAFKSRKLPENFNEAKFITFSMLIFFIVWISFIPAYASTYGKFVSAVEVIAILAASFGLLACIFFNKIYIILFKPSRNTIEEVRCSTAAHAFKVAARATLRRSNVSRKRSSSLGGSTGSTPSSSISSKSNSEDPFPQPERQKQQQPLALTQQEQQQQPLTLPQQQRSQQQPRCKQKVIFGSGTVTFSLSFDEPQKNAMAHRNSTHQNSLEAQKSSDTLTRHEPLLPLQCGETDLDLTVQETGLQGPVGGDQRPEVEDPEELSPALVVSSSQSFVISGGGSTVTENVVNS
The experiment in a line: Calcium receptor activation activity: Ca ion concentration-dependent Cl ionic current in Xenopus laevis oocyte expression system. Type of assay: cell-based. The conditions noted are these: for Activity (lowest concentration for which current was detected): Ca ion concentration-dependent Cl response current, peptides added at 1000 to 0.1 μM, oocytes voltage-clamped at −70 mV. How it is done:
To evaluate calcium receptor activation activity, a Ca ion concentration-dependent Cl ionic current measuring method using a Xenopus laevis oocyte expression system was used. If each activator is added to Xenopus laevis oocytes expressing the calcium receptor, intracellular Ca ions increase. Then, the Ca ion concentration-dependent Cl channel opens, and the intracellular current value changes as an ionic current. By measuring the change in this intracellular current value, the presence or absence of calcium receptor activation activity can be determined.
Specifically, the abdomen of Xenopus laevis was opened, and an egg batch was taken out and treated with a 1% collagenase solution at 20° C. for 2 hours to obtain individual oocytes. Into the oocytes, 50 nl of 1 μg/μl receptor cRNA or 50 nl of sterilized water per oocyte was introduced by using a micro glass capillary, and the oocytes were cultured at 18° C. for 2 or 3 days. For the culture, a solution obtained by adding 2 mM pyruvic acid, 10 U/ml of penicillin, and 10 μg/ml of streptomycin to the solution in Example 2 was used. After the culture, a test solution was added to the oocytes containing either the cRNA or sterilized water. Electrophysiological measurement was performed by using an amplifier, Geneclamp500 (Axon), and recording software, AxoScope 9.0 (Axon). The oocytes were voltage-clamped at −70 mV by the double electrode voltage clamp method, and the intracellular current was measured via the Ca ion concentration-dependent Cl ion channel. The maximum value of the intracellular current was considered as the response current value.
Calcium receptor activation activity of L-amino acids was evaluated by using the method described in Example 6. That is, oocytes containing either cRNA of the calcium receptor or sterilized water were prepared, and voltage-clamped at −70 mV by the double electrode voltage clamp method. To the voltage-clamped oocytes, alanine (10 mM), arginine (10 mM), asparagine (10 mM), aspartic acid (10 mM), cysteine (10 mM), glutamine (10 mM), glutamic acid (10 mM), glycine (10 mM), histidine (10 mM), isoleucine (10 mM), leucine (10 mM), lysine (10 mM), methionine (10 mM), phenylalanine (10 mM), proline (10 mM), serine (10 mM), threonine (10 mM), tryptophan (10 mM), tyrosine (10 mM), valine (10 mM), ornithine (10 mM), taurine (10 mM), or hydroxyproline (10 mM) was added, and Ca ion concentration-dependent Cl response current was measured. […] As for the aforementioned amino acids, the activation activity was reported in Proc. Natl. Acad. Sci. USA, 2000 Apr. 25, 97(9):4814-9.
Calcium receptor activation activity of D-cysteine was evaluated by using the method described in Example 6. That is, oocytes containing either cRNA of the calcium receptor or sterilized water were prepared, and voltage-clamped at −70 mV by the double electrode voltage clamp method. To the voltage-clamped oocytes, D-cysteine (10 mM), L-cysteine (10 mM), D-tryptophan (10 mM), or L-tryptophan (10 mM) was added, and Ca ion concentration-dependent Cl response current was measured.
Calcium receptor activation activity of peptides was evaluated by using the method described in Example 6. That is, oocytes containing either cRNA of the calcium receptor or sterilized water were prepared, and voltage-clamped at −70 mV by the double electrode voltage clamp method.
Calcium receptor activation activity of peptides was evaluated in the same manner as that of Example 10. Each of the peptides shown in Table 2 was added to voltage-clamped oocytes at 1000 μM, 300 μM, 100 μM, 30 μM, 10 μM, 3 μM, 1 μM, 0.3 μM, and 0.1 μM, and Ca ion concentration-dependent Cl response current was measured.

The subject of assay [1] is Parathyroid hormone (PTH). The experiment in a line: Pharmacological evaluation in rats: serum PTH after intravenous injection. Format: in vivo, rat. Particulars: male Sprague-Dawley rats, 100 mg/ml in saline, 0.1 ml/100 g body weight, tail vein. From the text:
The pharmacological effects of the peptides were confirmed by animal study. Parathyroid hormone (PTH) is one of the major proteins which relate to calcium homeostasis. Increase in PTH is directly responsible for hyperparathyroidism and hypoparathyroidism. It is known that PTH is secreted from the parathyroid gland, and its secretion is inhibited when the calcium receptor is activated. Male, 10 weeks old, Sprague-Dawley strain rats were used. “Rat Intact PTH ELISA KIT” (Immutopics) was used for measuring PTH according to the manufacturer's recommended protocol. 100 mg/ml of γ-Glu-Val-Gly was dissolved in physiological saline, and 0.1 ml/100 g body weight for each was injected through the tail vein. Blood was collected from the vein under the right clavicle, and blood serum was obtained by centrifugation. Each group consists of 3 rats, and PTH variation is shown below as average value±standard error. The result for the peptide-administered group was: 148±72.5 pg/ml before the administration and 9.44±2.94 pg/ml 15 minutes after the administration; meanwhile, the result for the control group (physiological saline administered group) was: 89.4±49.5 pg/ml before the administration and 41.1±11.6 pg/ml 15 minutes after the administration. As a result, PTH levels decreased as a result of the administration of the peptides.

Starred links: 1 amine or outer side, 2 acyl side, 3 side chain; linkers in the order of their positions; H or OH if unused. Non-standard residues stand in square brackets, D forms with d. No end group written: not given here. Cys(S-allyl) = S-allylcysteine, C=CCSC[C@H](N[*:1])C(=O)[*:2]; Cys(S-Me) = S-methylcysteine, CSC[C@H](N[*:1])C(=O)[*:2]; γGlu = O=C(O)[C@H](CCC(=O)[*:2])N[*:1]; Tau = Taurine, O=S(=O)(CCN[*:1])[*:2]; Tle = CC(C)(C)[C@H](N)C(=O)O; Orn = NCCC[C@H](N)C(=O)O; Abu = CC[C@H](N)C(=O)O

In the case of `N[C@H](CS)C(=O)O` [D-cysteine], on human calcium receptor (D-amino acid 10 mM, FIG. 3), the “calcium receptor activation activity (Cl response current)” value (shortened to “calcium receptor activation activity”) is given as “definitive calcium receptor activation activity”. `N[C@@H](CS)C(=O)O` [cysteine, reference compound]: the “calcium receptor activation activity” value at human calcium receptor (L-amino acid 10 mM, FIG. 2) is “definite calcium receptor activation activity”.

Consider `N[C@@H](Cc1c[nH]cn1)C(=O)O` [histidine, reference compound], for which the “calcium receptor activation activity” value at human calcium receptor (L-amino acid 10 mM, FIG. 2) is listed as “definite calcium receptor activation activity”. Still for that read-out and setting: next, `N[C@@H](Cc1ccccc1)C(=O)O` [phenylalanine, reference compound]: “definite calcium receptor activation activity”. On the same count and under the same terms, next, `N[C@@H](Cc1c[nH]c2ccccc12)C(=O)O` [tryptophan, reference compound]: “definite calcium receptor activation activity”. For the molecule `N[C@@H](Cc1ccc(O)cc1)C(=O)O` [tyrosine, reference compound], the “calcium receptor activation activity” value at human calcium receptor (L-amino acid 10 mM, FIG. 2) is reported as “definite calcium receptor activation activity”.

As to `N[C@@H](CCC(=O)N[C@@H](CSN=O)C(=O)NCC(=O)O)C(=O)O` [γ-Glu-Cys(SNO)-Gly], the “calcium receptor activation activity” value on human calcium receptor (peptide 50 μM, FIG. 4) is listed as “definitive calcium receptor activation activity”.

Regarding `N[C@@H](CCC(=O)N[C@@H](CS)C(=O)NCC(=O)O)C(=O)O` [γ-Glu-Cys-Gly], the “calcium receptor activation activity” value at human calcium receptor (peptide 50 μM, FIG. 4) was “definitive calcium receptor activation activity”.

In the case of γ-Glu-Abu-Gly ([γGlu]-[Abu]-Gly), the “Activity (lowest concentration for which current was detected)” value with human calcium receptor stood at 3 µM. Same read-out and setting: to “γ-Glu-Cys(S-Me)-Gly ([γGlu]-[Cys(S-Me)]-Gly)” belongs 3 µM.

On to “γ-Glu-Cys(S-allyl)-Gly ([γGlu]-[Cys(S-allyl)]-Gly)”, for which the “Activity (lowest concentration for which current was detected)” value with human calcium receptor came out at 100 µM. For γ-Glu-Gly-Gly ([γGlu]-Gly-Gly), the “Activity (lowest concentration for which current was detected)” value in the assay with human calcium receptor stood at 30 µM. For the molecule γ-Glu-Orn ([γGlu]-[Orn]), the “calcium receptor activation activity” value in the assay with human calcium receptor (peptide 500 μM, FIG. 4) is “definitive calcium receptor activation activity”. In the case of γ-Glu-Ser-Gly ([γGlu]-Ser-Gly), the “Activity (lowest concentration for which current was detected)” value in the assay with human calcium receptor came out at 30 µM. For γ-Glu-Tau ([γGlu]-[Tau]), the “Activity (lowest concentration for which current was detected)” value with human calcium receptor was found to be 300 µM. On to γ-Glu-Val-Arg ([γGlu]-Val-Arg), for which, in the assay with human calcium receptor, the “Activity (lowest concentration for which current was detected)” value was found to be 1000 µM. In the case of γ-Glu-Val-Asn ([γGlu]-Val-Asn), the “Activity (lowest concentration for which current was detected)” value with human calcium receptor stood at 30 µM. Same read-out and setting: to γ-Glu-Val-Asp belongs 1000 µM. With γ-Glu-Val-Cys ([γGlu]-Val-Cys), the “Activity (lowest concentration for which current was detected)” value in the assay with human calcium receptor was found to be 10 µM. In the case of γ-Glu-Val-Gln ([γGlu]-Val-Gln), the “Activity (lowest concentration for which current was detected)” value with human calcium receptor is 10 µM.

For γ-Glu-Val-Glu ([γGlu]-Val-Glu), in the assay with human calcium receptor, the “Activity (lowest concentration for which current was detected)” value stood at 1000 µM.

As to γ-Glu-Val-Gly ([γGlu]-Val-Gly), the “Activity (lowest concentration for which current was detected)” value in the assay with human calcium receptor is 0.1 µM. Moreover, the “PTH in blood serum, average value±standard error” value in assay [1] (15 minutes after the administration) stood at 9.44 ± 2.94 pg/mL; in assay [1] (before the administration), 148 ± 72.5 pg/mL. Turning to γ-Glu-Val-His ([γGlu]-Val-His), the “Activity (lowest concentration for which current was detected)” value with human calcium receptor stood at 100 µM. Take γ-Glu-Val-Lys ([γGlu]-Val-Lys): the “Activity (lowest concentration for which current was detected)” value with human calcium receptor turned out to be 1000 µM. For the molecule γ-Glu-Val-Met ([γGlu]-Val-Met), in the assay with human calcium receptor, the “Activity (lowest concentration for which current was detected)” value was found to be 1000 µM. On to γ-Glu-Val-Orn ([γGlu]-Val-[Orn]), for which, in the assay with human calcium receptor, the “Activity (lowest concentration for which current was detected)” value was 100 µM. The same measure, in the same setting: next, γ-Glu-Val-Phe ([γGlu]-Val-Phe): 30 µM; γ-Glu-Val-Pro ([γGlu]-Val-Pro): 30 µM; γ-Glu-Val-Ser ([γGlu]-Val-Ser): 30 µM. For γ-Glu-Val-Thr ([γGlu]-Val-Thr), in the assay with human calcium receptor, the “Activity (lowest concentration for which current was detected)” value amounted to 1000 µM. On the same count and under the same terms, to γ-Glu-Val-Val ([γGlu]-Val-Val) belongs 1000 µM. The same measure, in the same setting: to γ-Glu-t-Leu ([γGlu]-[Tle]) belongs 100 µM; to γ-Glu-γ-Glu-Val ([γGlu]-[γGlu]-Val), 1000 µM.

Source of the values: patent US8106020B2, “Calcium receptor activator” (Ajinomoto Co., Inc., priority 2005, dated 2012).
